Measurements taken from publication PMC6220335, “Molecular structure of promoter-bound yeast TFIID” (Nature Communications, 2018).

Columns and labels:
[1] = biological target: T1, Taf8, subunit of Komagataella phaffii TFIID (Komagataella phaffii, UniProt F2QT15 1-517); assay: cryo-EM structure; purified TFIID (0.4 µM) with two-fold excess of TFIIA and 2.5–3-fold excess of pGAP promoter DNA, cross-linked with 0.1% glutaraldehyde; focused refinement of the lobes (Taf2 lobe 4.5 Å, Twin lobe 4.8 Å); homology models docked; settings: both partners purified
T1 construct: Taf8, TFIID subunit of the yeast Komagataella phaffii (formerly Pichia pastoris); putative helices placed in the cryo-EM map; also called KpTaf8; source: endogenous, K. phaffii nuclear extract; co-purified in TFIID by SBP-tagged Taf2 (streptavidin beads, sucrose gradient)
T1 sequence (looked up): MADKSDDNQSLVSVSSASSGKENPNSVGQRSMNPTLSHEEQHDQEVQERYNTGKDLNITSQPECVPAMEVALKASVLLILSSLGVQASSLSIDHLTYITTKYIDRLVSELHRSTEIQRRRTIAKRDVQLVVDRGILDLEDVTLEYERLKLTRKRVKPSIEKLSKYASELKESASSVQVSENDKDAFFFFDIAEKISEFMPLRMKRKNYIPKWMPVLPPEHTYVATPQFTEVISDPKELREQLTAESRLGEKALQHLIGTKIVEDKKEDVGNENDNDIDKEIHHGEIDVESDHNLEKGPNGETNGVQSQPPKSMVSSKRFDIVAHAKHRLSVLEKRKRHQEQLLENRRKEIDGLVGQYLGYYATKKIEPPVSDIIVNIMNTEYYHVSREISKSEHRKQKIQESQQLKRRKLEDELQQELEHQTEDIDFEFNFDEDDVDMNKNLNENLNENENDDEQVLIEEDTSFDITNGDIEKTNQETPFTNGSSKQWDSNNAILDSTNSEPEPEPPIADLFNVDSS

[2] = biological target: T2, Taf2 with C-terminal streptavidin-binding peptide tag, subunit of Komagataella phaffii TFIID (Komagataella phaffii, UniProt F2QRH9 1-1571); assay: affinity purification with mass spectrometry; TFIID purified from K. phaffii nuclear extract by the SBP tag at the C-terminus of Taf2 (streptavidin beads, 250 mM potassium acetate, elution with 10 mM biotin, 10–30% sucrose gradient); SDS-PAGE and mass spectrometry of the purified complex; settings: partners not purified
T2 construct: Taf2, TFIID subunit of the yeast Komagataella phaffii (formerly Pichia pastoris); residues 36 to 1194 modelled in the cryo-EM map; bait of the purification; also called SBP-tagged Taf2; source: K. phaffii strain with SBP-tagged Taf2, nuclear extract; purified (streptavidin beads, biotin elution, sucrose gradient)

[3] = biological target: T3, Taf12, subunit of Komagataella phaffii TFIID (Komagataella phaffii, UniProt F2QSK7 1-609); assay: cross-linking; 50 µg purified TFIID, 3 mM BS3, 2 h at 25 °C; trypsin, SCX fractionation, Orbitrap Fusion MS; pLink and Nexus, 5% FDR; settings: both partners purified
T3 construct: Taf12, TFIID subunit of the yeast Komagataella phaffii (formerly Pichia pastoris); histone-fold domain modelled in the cryo-EM map; source: endogenous, K. phaffii nuclear extract; co-purified in TFIID by SBP-tagged Taf2 (streptavidin beads, sucrose gradient)
T3 sequence (looked up): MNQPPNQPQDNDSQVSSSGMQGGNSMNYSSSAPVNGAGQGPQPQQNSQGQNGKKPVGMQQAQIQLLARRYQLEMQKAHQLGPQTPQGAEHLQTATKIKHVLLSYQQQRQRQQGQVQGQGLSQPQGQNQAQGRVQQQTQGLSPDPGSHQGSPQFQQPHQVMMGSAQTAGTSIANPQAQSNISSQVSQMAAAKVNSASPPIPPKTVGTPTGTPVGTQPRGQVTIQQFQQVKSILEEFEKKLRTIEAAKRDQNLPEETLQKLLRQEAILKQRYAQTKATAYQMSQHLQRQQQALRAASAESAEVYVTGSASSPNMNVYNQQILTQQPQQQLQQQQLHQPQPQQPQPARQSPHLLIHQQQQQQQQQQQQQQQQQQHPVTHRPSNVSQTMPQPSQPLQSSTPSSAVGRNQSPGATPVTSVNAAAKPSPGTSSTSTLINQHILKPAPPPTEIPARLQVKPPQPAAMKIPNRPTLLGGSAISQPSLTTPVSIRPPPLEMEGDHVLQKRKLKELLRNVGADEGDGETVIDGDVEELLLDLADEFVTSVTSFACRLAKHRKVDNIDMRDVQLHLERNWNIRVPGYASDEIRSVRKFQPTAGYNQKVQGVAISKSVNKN

[4] = biological target: T4, Taf5, subunit of Komagataella phaffii TFIID (Komagataella phaffii, UniProt F2QWD3 1-722); assay: as above; settings: both partners purified
T4 construct: Taf5, TFIID subunit of the yeast Komagataella phaffii (formerly Pichia pastoris); WD40 repeat and NTD (residues 99–243) modelled in the cryo-EM map; two copies in holo-TFIID; source: endogenous, K. phaffii nuclear extract; co-purified in TFIID by SBP-tagged Taf2 (streptavidin beads, sucrose gradient)
T4 sequence (looked up): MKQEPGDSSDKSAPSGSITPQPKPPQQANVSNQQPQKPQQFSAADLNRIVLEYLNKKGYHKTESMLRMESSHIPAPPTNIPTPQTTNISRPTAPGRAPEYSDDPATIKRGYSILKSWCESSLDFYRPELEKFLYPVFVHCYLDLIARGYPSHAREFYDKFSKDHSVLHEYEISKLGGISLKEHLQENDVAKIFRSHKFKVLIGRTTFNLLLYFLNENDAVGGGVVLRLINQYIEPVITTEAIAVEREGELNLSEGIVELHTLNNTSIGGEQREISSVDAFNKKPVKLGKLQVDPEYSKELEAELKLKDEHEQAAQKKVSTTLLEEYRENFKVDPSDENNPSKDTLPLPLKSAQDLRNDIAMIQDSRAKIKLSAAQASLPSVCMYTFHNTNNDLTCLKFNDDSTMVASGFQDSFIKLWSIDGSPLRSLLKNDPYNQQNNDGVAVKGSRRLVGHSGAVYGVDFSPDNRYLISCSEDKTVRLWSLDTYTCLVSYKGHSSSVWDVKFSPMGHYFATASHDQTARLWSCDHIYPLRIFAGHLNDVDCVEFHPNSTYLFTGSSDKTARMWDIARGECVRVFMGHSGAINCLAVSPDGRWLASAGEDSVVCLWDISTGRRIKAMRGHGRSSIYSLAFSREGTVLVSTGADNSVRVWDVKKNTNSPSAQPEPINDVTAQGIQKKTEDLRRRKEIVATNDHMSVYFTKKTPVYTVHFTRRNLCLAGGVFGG

[5] = biological target: T5, Taf4, subunit of Komagataella phaffii TFIID (Komagataella phaffii, UniProt F2QWX2 1-411); assay: as above; settings: both partners purified
T5 construct: Taf4, TFIID subunit of the yeast Komagataella phaffii (formerly Pichia pastoris); histone-fold domain modelled in the cryo-EM map; source: endogenous, K. phaffii nuclear extract; co-purified in TFIID by SBP-tagged Taf2 (streptavidin beads, sucrose gradient)
T5 sequence (looked up): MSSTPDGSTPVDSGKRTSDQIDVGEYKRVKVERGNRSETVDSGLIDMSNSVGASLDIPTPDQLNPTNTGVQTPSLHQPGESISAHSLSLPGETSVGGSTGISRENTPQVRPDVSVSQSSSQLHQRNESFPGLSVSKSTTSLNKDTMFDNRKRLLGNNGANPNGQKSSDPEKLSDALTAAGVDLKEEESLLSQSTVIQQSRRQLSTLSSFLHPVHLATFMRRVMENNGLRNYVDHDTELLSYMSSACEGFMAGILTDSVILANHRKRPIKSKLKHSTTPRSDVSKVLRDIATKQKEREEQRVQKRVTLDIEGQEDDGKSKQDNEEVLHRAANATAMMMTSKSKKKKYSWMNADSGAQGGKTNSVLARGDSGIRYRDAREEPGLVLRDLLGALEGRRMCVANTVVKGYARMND

B1: Taf14, subunit of Komagataella phaffii TFIID (natural protein, UniProt F2QLE3 1-247, looked up)
chain: MSDLKRTVRITTTQNVLKDIPPIEKGFPMRKWSISVSLLNDQGKEIPATIFDKVTYHLHPTFENPVRVFKQPPFKIEEQGWGEFDMKIALTIAEKGGERKISHDLNFLKEKYIVDHVISVPTNKPGLLALLAESGPVPSSEGATTPGLSSVTEKRKTSLVGDVKAKKVKTSSGAVKGGVDLEKLADGLTKLSEDDLLGVVQMVTDNRSPEMNIKNDVDEGEFTMDLYSLPDSLLKSLWEYVKKHADV
notes: Taf14, yeast-specific TFIID subunit of Komagataella phaffii (formerly Pichia pastoris); YEATS domain docked in the Taf2 lobe of the cryo-EM map; source: endogenous, K. phaffii nuclear extract; co-purified in TFIID by SBP-tagged Taf2 (streptavidin beads, sucrose gradient)
- binding result [1]: binds
- binding result [2]: binds

B2: Taf11, subunit of Komagataella phaffii TFIID (natural protein, UniProt F2QRB1 1-281, looked up)
chain: MSPKPESEIDQGPSVSVTSAEEKSRLEEVKDVHEDPKAEEGLVSAPQGSDTLGQEGKTEKEQNEAKGDIEEESEESAEEDEEEEEEIVDDQISYALNYLFQDIHEKIRLRETQRDTTQDEFELSRQEKVGLLLENFDQDQMTRYEFFRRANVNKSVAKRIVQSVLGQSINNNVALLVSTVSKMFVGEMVEKAKEVQSRRQKAQILEQISQRKAAIKNIRKRDLDESVVDQIMNSKRIRIPKDEPLSPEDIREAWRLYQLETNVLPSNQWRRQGGGDGNMFR
notes: Taf11, TFIID subunit of the yeast Komagataella phaffii (formerly Pichia pastoris); histone-fold domain modelled in the cryo-EM map; source: endogenous, K. phaffii nuclear extract; co-purified in TFIID by SBP-tagged Taf2 (streptavidin beads, sucrose gradient)
- binding result [3]: binds
- binding result [4]: binds
- binding result [5]: binds
